The target in assay [1] is T1, full-length human TIGIT on cells (human, UniProt Q495A1 22-244).
T1 construct: Used for engineered cells (NK92mi/TIGIT, NK92MI/TIGIT-DNAM-1, Jurkat/TIGIT) and for TIGIT on human blood cells; also called native TIGIT; huTIGIT
T1 sequence: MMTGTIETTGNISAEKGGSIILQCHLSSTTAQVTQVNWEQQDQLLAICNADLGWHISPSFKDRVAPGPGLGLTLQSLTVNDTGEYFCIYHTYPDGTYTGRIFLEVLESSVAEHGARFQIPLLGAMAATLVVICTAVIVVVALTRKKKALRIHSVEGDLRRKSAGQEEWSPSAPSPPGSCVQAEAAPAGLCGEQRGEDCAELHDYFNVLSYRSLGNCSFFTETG
In words: flow cytometry on living NK92mi/TIGIT cells, goat anti-human IgG detection; Test 2. The method, then: (§1) To evaluate the binding activity of anti-TIGIT antibodies to native TIGIT on living cells, NK92mi cells were engineered to over-express human TIGIT. Living NK92mi/TIGIT cells were seeded in 96-well plate and were incubated with a series of dilutions of anti-TIGIT antibodies. Goat anti-Human IgG was used as secondary antibody to detect antibody binding to the cell surface. EC₅₀ values for dose-dependent binding to human native TIGIT were determined by fitting the dose-response data to the four-parameter logistic model with GraphPad Prism. As show in FIG. 4A-B and Table 6.
On the technique in general: Flow cytometry measures light scatter and fluorescence of single cells or particles in a stream.

Assay [2] concerns the target T1, full-length human TIGIT on cells. The assay can be described thus: flow cytometry on living NK92mi/TIGIT cells, goat anti-human IgG detection; Test 1. Here is the method: as §1
The target in assay [3] is T2, human TIGIT (form in the assay not stated) (human, UniProt Q495A1 22-141, limits assumed).
T2 construct: whole entry named
T2 sequence: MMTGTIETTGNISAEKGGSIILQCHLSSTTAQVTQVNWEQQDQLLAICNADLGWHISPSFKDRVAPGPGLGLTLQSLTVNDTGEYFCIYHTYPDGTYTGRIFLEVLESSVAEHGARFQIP
The assay can be described thus: SPR; antibody captured on anti-human Fc surface, TIGIT analyte not named; Test 2. An excerpt: (§2) For affinity determination, antibodies were captured by anti-human Fc surface, and used in the affinity-assay based on surface plasmon resonance (SPR) technology.

Assay [4] deals with T2, human TIGIT (form in the assay not …). The assay can be described thus: SPR; antibody captured on anti-human Fc surface, TIGIT analyte not named; mean of Tests 1 and 2.
Source text: as §2

Assay [5] shares this target. The assay can be described thus: SPR; antibody captured on anti-human Fc surface, TIGIT analyte not named; Test 1.
Source text: as §2
Background: Surface plasmon resonance follows binding to a sensor surface in real time, without labels.

Assay [6] concerns the target T1, full-length human TIGIT on cells. The assay can be described thus: TIGIT receptor occupancy assay on CD3+ human peripheral blood mononuclear cells; CD3+ human peripheral blood mononuclear cells.
Assay [7] concerns the target T3, humanized TIGIT of humanized TIGIT knock-in mice, on CD3+ splenocytes.
T3 chain: T2 sequence
In words: TIGIT receptor occupancy assay on CD3+ splenocytes from humanized TIGIT knock-in mice.

Assay [8] addresses T4, TIGIT-his (human, UniProt Q495A1 22-141).
T4 construct: also called human TIGIT; not shown: his tag
T4 sequence: T2 sequence
In words: SPR; antibody immobilized on CM5 chip, TIGIT-his as analyte, HBS pH 7.4; column head prints nM, koff/kon gives M.

The target of assay [9] is T4, TIGIT-his. The assay can be described thus: SPR; antibody immobilized on CM5 chip, TIGIT-his as analyte, HBS pH 6.0.
Assay [10] has as its target T5, TIGIT-mIgG2a (human; mouse, UniProt Q495A1 22-141).
T5 construct: also called soluble TIGIT; TIGIT-mIgG2a fusion protein
T5 sequence: T2 sequence
The assay can be described thus: flow cytometry; blockade of soluble TIGIT binding to PVR-L2 on HEK293/PVR-L2 cells. An excerpt:
(§3) To determine whether anti-TIGIT antibodies could block TIGIT-PVR and TIGIT-PVR-L2 interactions, HEK293 cells were engineered to express high levels of PVR or PVR-L2. The resultant cell lines were named HEK293/PVR and HEK293/PVR-L2, respectively. […] The blockade of TIGIT-ligand interaction was quantitatively measured by adding serially diluted anti-TIGIT antibodies.

Assay [11] has as its target T4, TIGIT-his. The assay can be described thus: SPR; antibody immobilized on CM5 chip, TIGIT-his as analyte, HBS pH 7.4.
For assay [12], the target named is T5, TIGIT-mIgG2a. In words: flow cytometry; blockade of soluble TIGIT binding to PVR on HEK293/PVR cells.
Source text: as §3

Assay [13] deals with T4, TIGIT-his. The assay can be described thus: SPR; antibody immobilized on CM5 chip, TIGIT-his as analyte, HBS pH 6.0; column head prints nM, koff/kon gives M.
Assay [14] deals with T2, human TIGIT (form in the assay not …). In words: SPR; antibody captured on anti-human Fc surface, TIGIT analyte not named; Test 1; Test 1.
Source text: as §2

In assay [15] the target is T6, TIGIT-huIgG1 (human, UniProt Q495A1 22-141).
T6 construct: also called Human Fc-tagged TIGIT; TIGIT-huIgG1 fusion protein
T6 sequence: T2 sequence
The assay can be described thus: SPR (BIAcore T-200); human Fc-tagged TIGIT captured by anti-human IgG, antibody as analyte. Here is the method:
(§4) Briefly, anti-human IgG antibody was immobilized on an activated CM5 biosensor chip (Cat. No.: BR100530, GE Life Sciences). Human Fc-tagged TIGIT was flowed over the chip surface and captured by anti-human IgG antibody. Then a serial dilution (0.12 nM to 10 nM) of purified murine antibodies were flowed over the chip surface and changes in surface plasmon resonance signals were analyzed to calculate the association rates (kₒₙ) and dissociation rates (koff) by using the one-to-one Langmuir binding model (BIA Evaluation Software, GE Life Sciences). The equilibrium dissociation constant (KD) was calculated as the ratio koff/kₒₙ.

Assay [16] concerns the target T6, TIGIT-huIgG1. In words: SPR (BIAcore T-200); human Fc-tagged TIGIT captured by anti-human IgG, antibody as analyte; column head prints nM, koff/kon gives M. The method, then:
as §4

For orientation: EC50 means the concentration at which the effect is half-maximal. Low readings indicate an effect from little substance, high ones a need for much substance. As a reminder, the Kd is the constant that tells how readily two partners part at equilibrium. Read a high Kd as weaker binding. What is called koff is a measure of how fast the partners let go of each other. A low value points to a long-lived complex. For orientation: kon means a measure of how fast the partners come together. The low end stands for slower complex formation, the high end for faster complex formation. In general, IC50 refers to the concentration at which inhibition is half-maximal.

Residue numbers refer to the chain shown, from its start.

B1: hu1217-1-1 (antibody, V domains shown)
VH: EVQLVESGGGLVQPGGSLRLSCATSGFTFSDYYMYWIRQAPGKGLEWVAYITKGGGSTYYPDSVKGRFTISRDNAKNTLYLQMNSLRAEDTAVYYCARQTNYDFTMDYWGQGTLVTVSS
VL: EIVMTQSPATLSVSPGERATLSCKASQDVGTSVAWYQQKPGQAPRLLIYWASARHTGVPARFSGSGSGTEFTLTISSLQSEDFAVYYCQQYSSYPLTFGGGTKVEIK
notes: Full-length human IgG1mf/kappa format; not shown: human kappa light chain constant region
Consider B1, for which the EC50 was 0.084 µg/mL in assay [1] and 0.114 µg/mL in assay [2]. In addition, the dissociation constant Kd in assay [3] amounted to 0.52 nM; in [4], 0.415 nM; in assay [5], 0.309 nM. The figures for the koff in [3] and in assay [5] were 0.000694 s⁻¹ and 0.000448 s⁻¹, respectively. The kon in [3] came out at 1.33e+06 M⁻¹ s⁻¹; in assay [5], 1.45e+06 M⁻¹ s⁻¹.

B2: hu1217-2-2 (as named in Examples 12 to 14, Fc format not stated) (antibody, V domains shown)
VH: B1 VH with T24A, I37V
VL: B1 VL with V58I
notes: kept apart from m7 and m8 for that reason; also called Antibody hu1217-2-2
As for B2, the results for the EC50 in [6] and in assay [7] were 0.0632 µg/mL and 0.0488 µg/mL, respectively.

B3: hu1217-2-2/IgG1wt (antibody, V domains shown)
VH: B1 VH with T24A, I37V
VL: B1 VL with V58I
notes: Humanized version with a wild-type IgG1 Fc region and the same VH and VL as hu1217-2-2/IgG1mf
Consider B3, for which the Kd in [8] worked out at 0.219 nM; in assay [13], 0.0299 nM. For the same molecule, the koff in [9] worked out at 7.6e-05 s⁻¹; in assay [11], 9.53e-05 s⁻¹. The figures for the kon in assay [9] and in assay [11] were 2.54e+06 M⁻¹ s⁻¹ and 434000 M⁻¹ s⁻¹, respectively. Moreover, the IC50 stood at 0.25 µg/mL in [10] and 0.64 µg/mL in assay [12].

B4: hu1217-2-2/IgG1mf (antibody, V domains shown)
VH: B1 VH with T24A, I37V
VL: B1 VL with V58I
notes: not shown: human kappa light chain constant region
Regarding B4, in assay [1], the EC50 was 0.068 µg/mL. In addition, the Kd was determined as 0.404 nM in assay [3], 0.266 nM in [4] and 0.127 nM in assay [5]. Moreover, the koff is 0.000608 s⁻¹ in assay [3] and 0.000229 s⁻¹ in [5]. The values for the kon in assay [3] and in assay [14] were 1.5e+06 M⁻¹ s⁻¹ and 1.8e+06 M⁻¹ s⁻¹, respectively. The IC50 was 0.18 µg/mL in assay [10] and 0.55 µg/mL in [12].

B5: mu1217 (antibody, V domains shown)
VH: EVKLVESGGGLVQPGGSLKLSCATSGFTFSDYYMYWIRQTPEKRLEWVAYITKGGGSTYYPDTVKGRFTISRDNAKNTLYLQVSRLKSEDTAIYYCARQTNYDFTMDYWGQGTSVTVSS
VL: DIVMTQSHKFMSTSVGDRVSIICKASQDVGTSVAWYQQKPGQSPNLLIYWASARHTGVPDRFTGSGSGTDFTLTISNVQSEDLADYFCQQYSSYPLTFGAGTKLELK
notes: Purified murine hybridoma antibody; also called murine anti-TIGIT mAb mu1217
In the case of B5, in [15], the koff stood at 3.96e-05 s⁻¹ and the kon was determined as 4.33e+06 M⁻¹ s⁻¹. In assay [16], this molecule had a Kd of 0.00915 nM.

B6: ch1217 (antibody, V domains shown)
VH: B5 VH
VL: B5 VL
notes: Chimeric: mu1217 variable domains fused to human IgG1mf/kappa constant regions; not shown: human kappa light chain constant region
The molecule B6 gave an EC50 in [2] of 0.1 µg/mL. In [5], the Kd came out at 0.283 nM, the koff turned out to be 0.000443 s⁻¹ and the kon was 1.56e+06 M⁻¹ s⁻¹.

The values above are taken from US20230391883A1 (BEIGENE SWITZERLAND, published 2023).
